Molecular target: phospholipase B D2
Assay: IP-MS (UBQLN2 immunoprecipitation, mass spectrometry)
Details: iMNs; read off a plot

In the case of “Ubiquilin-2, wild type (from UniProt Q9UHD9) P497H; P506T; P509S; P525S”, the other: Student's T-test Difference is reported as 0.47.

Reference: publication PMC12813162
